Test results reported in publication PMC6017478, “Exploring Alternative Radiolabeling Strategies for Sialic Acid-Binding Immunoglobulin-Like Lectin 9 Peptide: [^68Ga]Ga- and [^18F]AlF-NOTA-Siglec-9” (Molecules : A Journal of Synthetic Chemistry and Natural …, 2018).
Positions of bridges follow the written chain, without caps; N, C: chain ends. Residues, ends and D or L forms follow the SMILES beside them. Groups on a side chain read outwards from the residue. *: point of attachment. NOTA = O=C(O)CN1CCN(CC(=O)O)CCN(CC(=O)*)CC1; AEEA = NCCOCCOCC(=O)O

How the values were obtained:
[1] = format: physicochemical; settings: pH 7.6
Protocol: The distribution coefficient (Log D) was measured by adding 5 kBq of tracer into a mixture of PBS (pH 7.6) and 1-octanol (1:1, v/v). The solution was mixed thoroughly for 5 min at room temperature. After separation of phases by centrifugation (12,000× g, 6 min), 100 µL aliquots of each phase layer were taken for γ-counting to determine Log D. The test was repeated three times. Log D was calculated as Log D=log10 counts per minute in octanol/counts per minute in PBS .

[2] = rat, in vivo, iv
Protocol: The rats were subcutaneously injected with 50 µL turpentine oil (Sigma-Aldrich) into the right shoulder area (foreleg) to induce skin/muscle inflammation, which was allowed to develop for 24 h prior to PET imaging. For imaging and ex vivo analysis, the rats were anesthetized using isoflurane and intravenously injected with 17.7 ± 3.4 MBq of one of the two radiotracers via the tail vein cannula. Immediately after injection a dynamic 60-min PET scan was performed on four rats for [^68Ga]Ga-NOTA-Siglec-9 and four rats for [^18F]AlF-NOTA-Siglec-9. The data were acquired in list-mode and iteratively reconstructed with a 3-D ordered subsets expectation maximization algorithm with 8 iterations, 16 subsets, and a 2-mm full-width at half-maximum post-filter into 6 × 10 s, 4 × 60 s, 5 × 300 s, and 3 × 600 s time frames. After imaging, the rats were euthanized, and various tissues, including inflamed skin/muscle (inflamed area) from the right foreleg, skin from the left foreleg (control area), and healthy muscle from the left hind leg, were excised, weighed, and measured with a γ-counter. The ex vivo radioactivity measurements were decay-corrected from the time of injection, and the results were expressed as SUV. Plasma protein binding was measured from plasma samples taken from 60 min post-injections. […] Radioactivity of both the precipitate and the supernatant was measured by γ-counting.

## CC(C)C[C@@H]1NC(=O)CNC(=O)[C@H](CCCNC(=N)N)NC(=O)[C@H](Cc2c[nH]c3ccccc23)NC(=O)[C@H](CO)NC(=O)[C@H](CC(C)C)NC(=O)[C@H](CO)NC(=O)[C@H](CC(C)C)NC(=O)[C@H](CCCNC(=N)N)NC(=O)[C@H](C)NC(=O)[C@@H](N)CSSC[C@@H](C(=O)N2CCC[C@H]2C(=O)N[C@@H](CO)C(=O)N[C@@H](CCCCNC(=O)COCCOCCNC(=O)CN2CCN(CC(=O)O)CCN(CC(=O)O)CC2)C(=O)O)NC(=O)[C@H](CC(C)C)NC(=O)[C@H]([C@@H](C)O)NC1=O [[^68Ga]Ga-NOTA-Siglec-9] [metal not drawn] (H-CARLSLSWRGLTLCPSK([AEEA-NOTA])-OH; disulfide 1-14)
[1]
  Log D: −3.2 ± 0.3
[2]
  Plasma protein binding: 31.4 ± 3.4%
